Data set [1] addresses T1, Mlh1-Mlh3 (Saccharomyces cerevisiae) (UniProt P38920+Q12083).
T1 sequence 1: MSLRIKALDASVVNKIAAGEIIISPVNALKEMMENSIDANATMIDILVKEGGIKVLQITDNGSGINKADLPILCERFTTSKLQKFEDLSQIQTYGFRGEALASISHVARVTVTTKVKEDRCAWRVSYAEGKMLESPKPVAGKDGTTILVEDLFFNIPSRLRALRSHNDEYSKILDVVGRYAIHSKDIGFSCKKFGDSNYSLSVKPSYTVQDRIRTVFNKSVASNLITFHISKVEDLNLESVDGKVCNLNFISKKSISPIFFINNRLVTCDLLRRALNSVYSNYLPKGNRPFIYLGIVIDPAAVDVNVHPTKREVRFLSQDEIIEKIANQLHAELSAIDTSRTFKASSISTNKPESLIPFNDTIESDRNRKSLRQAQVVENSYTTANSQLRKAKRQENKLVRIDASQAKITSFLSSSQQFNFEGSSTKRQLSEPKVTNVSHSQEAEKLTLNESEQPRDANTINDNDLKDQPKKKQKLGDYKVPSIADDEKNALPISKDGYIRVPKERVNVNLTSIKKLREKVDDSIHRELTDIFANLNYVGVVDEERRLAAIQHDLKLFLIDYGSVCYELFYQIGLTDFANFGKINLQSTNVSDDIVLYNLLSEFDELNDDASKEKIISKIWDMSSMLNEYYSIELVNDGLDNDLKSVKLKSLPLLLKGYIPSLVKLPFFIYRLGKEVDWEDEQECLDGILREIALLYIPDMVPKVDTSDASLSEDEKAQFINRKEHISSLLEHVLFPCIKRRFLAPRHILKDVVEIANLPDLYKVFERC
T1 sequence 2: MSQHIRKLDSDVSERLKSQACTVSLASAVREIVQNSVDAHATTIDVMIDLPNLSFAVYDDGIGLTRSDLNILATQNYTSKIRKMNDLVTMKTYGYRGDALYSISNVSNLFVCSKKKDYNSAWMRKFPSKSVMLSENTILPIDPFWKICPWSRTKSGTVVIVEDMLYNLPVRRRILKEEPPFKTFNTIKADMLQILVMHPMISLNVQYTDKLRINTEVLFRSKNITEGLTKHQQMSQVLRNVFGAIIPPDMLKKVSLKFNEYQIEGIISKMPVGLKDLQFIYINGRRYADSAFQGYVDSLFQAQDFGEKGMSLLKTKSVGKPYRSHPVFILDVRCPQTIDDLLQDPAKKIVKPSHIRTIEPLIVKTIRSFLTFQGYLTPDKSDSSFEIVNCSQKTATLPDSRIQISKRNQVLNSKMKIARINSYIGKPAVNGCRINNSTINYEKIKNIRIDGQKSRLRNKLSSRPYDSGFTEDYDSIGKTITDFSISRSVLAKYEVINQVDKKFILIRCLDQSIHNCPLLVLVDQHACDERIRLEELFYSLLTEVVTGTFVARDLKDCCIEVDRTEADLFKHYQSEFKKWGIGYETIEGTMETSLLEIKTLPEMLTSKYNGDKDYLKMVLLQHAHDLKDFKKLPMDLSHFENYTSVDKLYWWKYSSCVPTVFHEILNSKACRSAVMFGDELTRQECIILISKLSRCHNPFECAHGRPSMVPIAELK
In words: filter binding. To be noted: 2 mM Mg2+; Filter binding: 20 mM Tris-HCl pH 7.5, 0.01 mM EDTA, 2 mM MgCl2, 40 ug/mL BSA, 0.1 mM DTT, 15 uM nucleotide DNA, 10 min at 30 C (20 or 150 mM KCl in Fig 4B …).

For data set [2], the target named is Yeast wild-type Mlh1-Mlh3 (yeast (S. cerevisiae)) (UniProt P38920).

2.7 kb linear pUC18 (HindIII) registered a Kd in data set [1] of 100 nM.

With 7 kb linear pEAE399 (HindIII), the Kd in data set [1] turned out to be 65 nM.

The substance 12 kb linear pEAE99 (HindIII) came in with a Kd in data set [1] of 40 nM.

In data set [2], “Yeast Msh2-Msh3 (from UniProt P25847 1-964; P25336 1-1018) (complex)” returned an amount of nicked product made by Mlh1-Mlh3 on the 7.2 kb +8 loop circular substrate, without and with Msh2-Msh3 (10% without) of 21%; an amount of nicked product made by Mlh1-Mlh3 on the 7.2 kb homoduplex circular substrate, without and with Msh2-Msh3 (15% without) of 36%.

For the origin of these results see PMC5409509.
